From patent publication US20170051059A1

Molecular target: human FcRn (human) (UniProt P55899)
Assay: SPR (Biacore), pH 7.1; antibody captured on biot-IZ-hCD40L, soluble receptor as analyte

Chain of UniProt P55899 (P55899 24-297 limits assumed, chain 1 of 2): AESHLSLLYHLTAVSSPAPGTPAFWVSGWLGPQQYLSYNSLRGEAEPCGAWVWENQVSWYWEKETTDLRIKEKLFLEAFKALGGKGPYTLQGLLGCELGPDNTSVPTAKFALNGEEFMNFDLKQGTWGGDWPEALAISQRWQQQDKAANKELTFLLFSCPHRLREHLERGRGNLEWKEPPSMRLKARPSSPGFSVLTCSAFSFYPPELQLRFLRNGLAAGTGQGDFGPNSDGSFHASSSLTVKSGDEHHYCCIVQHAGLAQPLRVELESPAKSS
Chain of UniProt P55899 (chain, as listed by the source limits assumed, chain 2 of 2): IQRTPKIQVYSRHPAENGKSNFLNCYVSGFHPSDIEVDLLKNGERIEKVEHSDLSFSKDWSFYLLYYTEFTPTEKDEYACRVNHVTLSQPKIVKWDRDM

5c8-IgG1 (antibody)
Kd: > 5 µM
